Assay results from the supplement of paper PMC9112550, “Optimization of the antimicrobial peptide Bac7 by deep mutational scanning” (BMC Biology, 2022).

System: Escherichia coli TOP10
Test: shrunken log2 fold change of peptide-encoding DNA abundance (4.5 h post-induction vs induction); higher = less antimicrobial activity (less host growth inhibition)
Details: time post-induction: 4.5 h; library: site-saturation at positions 5, 18, 19, 20
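Further: peptides expressed intracellularly from a pBAD plasmid library in pooled LB shake-flask culture, induced with 0.3% L-arabinose, DNA abundance read by NGS, three biological replicates, DESeq2 with apeglm shrinkage.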

| Sequence | shrunken log2 fold change |
| --- | --- |
| RRIRFRPPRLPRPRPRPAQSPRP | 0.0902 |
| RRIRVRPPRLPRPRPRPRPAPRP | 0.678 |
| RRIRVRPPRLPRPRPRPIFPPRP | 0.199 |
| RRIRERPPRLPRPRPRPWSAPRP | -0.00234 |
| RRIRQRPPRLPRPRPRPWYSPRP | -0.0193 |
| RRIRLRPPRLPRPRPRPGWCPRP | 0.191 |
| RRIRFRPPRLPRPRPRPKHQPRP | -0.131 |
| RRIRFRPPRLPRPRPRPRIMPRP | -0.624 |
| RRIRDRPPRLPRPRPRPRAWPRP | 0.0227 |
| RRIRGRPPRLPRPRPRPIQYPRP | -0.0751 |
| RRIRTRPPRLPRPRPRPQDFPRP | -0.29 |
| RRIRQRPPRLPRPRPRPKAAPRP | -0.0496 |
| RRIRKRPPRLPRPRPRPNVDPRP | 0.17 |
| RRIRFRPPRLPRPRPRPPKSPRP | 0.234 |
| RRIRMRPPRLPRPRPRPCQNPRP | 0.0761 |
| RRIRERPPRLPRPRPRPHLHPRP | -0.485 |
| RRIRMRPPRLPRPRPRPYKSPRP | -0.215 |
| RRIRCRPPRLPRPRPRPAIDPRP | -0.0121 |
| RRIRCRPPRLPRPRPRPCWFPRP | -0.386 |
| RRIRNRPPRLPRPRPRPAVDPRP | 0.0455 |
| RRIRMRPPRLPRPRPRPPMQPRP | 0.504 |
| RRIRTRPPRLPRPRPRPVVNPRP | 0.0198 |
| RRIRCRPPRLPRPRPRPEASPRP | 0.14 |
| RRIRDRPPRLPRPRPRPHKGPRP | 0.0993 |
| RRIRHRPPRLPRPRPRPNPRPRP | -0.0621 |

| Sequence | shrunken log2 fold change |
| --- | --- |
| RRIRDRPPRLPRPRPRPFRAPRP | -0.0871 |
| RRIRYRPPRLPRPRPRPISHPRP | -0.675 |
| RRIRTRPPRLPRPRPRPKGKPRP | 0.34 |
| RRIRPRPPRLPRPRPRPINEPRP | -0.54 |
| RRIRFRPPRLPRPRPRPLTDPRP | -0.143 |
| RRIRARPPRLPRPRPRPCGFPRP | 0.111 |
| RRIRERPPRLPRPRPRPSHRPRP | -0.0834 |
| RRIRTRPPRLPRPRPRPEHGPRP | 0.0391 |
| RRIRRRPPRLPRPRPRPCGLPRP | 0.15 |
| RRIRARPPRLPRPRPRPRYPPRP | 0.0172 |
| RRIRWRPPRLPRPRPRPALWPRP | 0.53 |
| RRIRARPPRLPRPRPRPFPTPRP | 0.311 |
| RRIRFRPPRLPRPRPRPCYIPRP | -0.158 |
| RRIRFRPPRLPRPRPRPDIIPRP | 0.0368 |
| RRIRARPPRLPRPRPRPAPCPRP | 0.638 |
| RRIRHRPPRLPRPRPRPFDVPRP | -0.168 |
| RRIRCRPPRLPRPRPRPNSNPRP | -0.698 |
| RRIRDRPPRLPRPRPRPEVWPRP | 1.75 |
| RRIRKRPPRLPRPRPRPFNPPRP | -0.0407 |
| RRIRIRPPRLPRPRPRPVYKPRP | -0.834 |
| RRIRSRPPRLPRPRPRPQYQPRP | -0.136 |
| RRIRQRPPRLPRPRPRPNPDPRP | -0.0331 |
| RRIRWRPPRLPRPRPRPTTAPRP | 0.432 |
| RRIRYRPPRLPRPRPRPHDEPRP | -0.0568 |
| RRIRHRPPRLPRPRPRPSFQPRP | -0.652 |

| Sequence | shrunken log2 fold change |
| --- | --- |
| RRIRKRPPRLPRPRPRPGTEPRP | 0.542 |
| RRIRQRPPRLPRPRPRPMAWPRP | -0.128 |
| RRIRCRPPRLPRPRPRPWTKPRP | -0.402 |
| RRIRIRPPRLPRPRPRPGCQPRP | -0.0196 |
| RRIRSRPPRLPRPRPRPHEVPRP | -0.0564 |
| RRIRTRPPRLPRPRPRPCIAPRP | -0.226 |
| RRIRSRPPRLPRPRPRPFEQPRP | -0.0212 |
| RRIRRRPPRLPRPRPRPFPLPRP | 0.49 |
| RRIRMRPPRLPRPRPRPAFCPRP | 0.455 |
| RRIRFRPPRLPRPRPRPPTSPRP | 0.403 |
| RRIRARPPRLPRPRPRPLEPPRP | 0.451 |
| RRIRARPPRLPRPRPRPPGAPRP | 1.11 |
| RRIRKRPPRLPRPRPRPQTWPRP | 0.134 |
| RRIRMRPPRLPRPRPRPPMEPRP | 0.696 |
| RRIRGRPPRLPRPRPRPLRCPRP | 0.58 |
| RRIRGRPPRLPRPRPRPAFVPRP | 0.373 |
| RRIRKRPPRLPRPRPRPSWNPRP | -0.15 |
| RRIRKRPPRLPRPRPRPHITPRP | -0.167 |
| RRIRDRPPRLPRPRPRPQEYPRP | -0.0984 |
| RRIRMRPPRLPRPRPRPYTWPRP | -0.101 |
| RRIRGRPPRLPRPRPRPEEYPRP | 0.0595 |
| RRIRKRPPRLPRPRPRPDRNPRP | 0.158 |
| RRIRARPPRLPRPRPRPGCDPRP | 0.78 |
| RRIRYRPPRLPRPRPRPSLLPRP | -0.727 |
| RRIRKRPPRLPRPRPRPILKPRP | 0.117 |

| Sequence | shrunken log2 fold change |
| --- | --- |
| RRIRRRPPRLPRPRPRPQVNPRP | -0.0663 |
| RRIRVRPPRLPRPRPRPCPYPRP | -1.14 |
| RRIRHRPPRLPRPRPRPQFEPRP | -0.0276 |
| RRIRSRPPRLPRPRPRPTKNPRP | 0.168 |
| RRIRNRPPRLPRPRPRPVSTPRP | -0.272 |
| RRIRTRPPRLPRPRPRPWRAPRP | 0.21 |
| RRIRYRPPRLPRPRPRPQWNPRP | -0.108 |
| RRIRERPPRLPRPRPRPLCHPRP | -0.0201 |
| RRIRLRPPRLPRPRPRPGTMPRP | -0.0422 |
| RRIRRRPPRLPRPRPRPWMDPRP | -0.196 |
| RRIRPRPPRLPRPRPRPALTPRP | 0.241 |
| RRIRKRPPRLPRPRPRPCNYPRP | -0.0312 |
| RRIRYRPPRLPRPRPRPVFNPRP | -1.32 |
| RRIRYRPPRLPRPRPRPWNMPRP | -0.186 |
| RRIRARPPRLPRPRPRPGKEPRP | 0.222 |
| RRIRLRPPRLPRPRPRPRELPRP | 0.765 |
| RRIRFRPPRLPRPRPRPAMNPRP | -0.102 |
| RRIRDRPPRLPRPRPRPVMKPRP | -0.0716 |
| RRIRSRPPRLPRPRPRPVATPRP | 0.707 |
| RRIRWRPPRLPRPRPRPMSSPRP | 0.0453 |
| RRIRFRPPRLPRPRPRPTCGPRP | 0.00559 |
| RRIRNRPPRLPRPRPRPRFSPRP | 0.0393 |
| RRIRCRPPRLPRPRPRPMKGPRP | 0.0113 |
| RRIRPRPPRLPRPRPRPMNYPRP | -0.736 |
| RRIRFRPPRLPRPRPRPIRIPRP | -0.223 |

| Sequence | shrunken log2 fold change |
| --- | --- |
| RRIRSRPPRLPRPRPRPRHQPRP | -0.119 |
| RRIRMRPPRLPRPRPRPWIDPRP | -0.146 |
| RRIRVRPPRLPRPRPRPNGWPRP | 0.0568 |
| RRIRNRPPRLPRPRPRPLTYPRP | -0.979 |
| RRIRFRPPRLPRPRPRPHMAPRP | -0.429 |
| RRIRPRPPRLPRPRPRPEPQPRP | 0.268 |
| RRIRYRPPRLPRPRPRPNFGPRP | -0.126 |
| RRIRQRPPRLPRPRPRPHRLPRP | -0.0506 |
| RRIRARPPRLPRPRPRPIEVPRP | 0.0287 |
| RRIRVRPPRLPRPRPRPEPCPRP | -0.0507 |
| RRIRFRPPRLPRPRPRPTNMPRP | -0.712 |
| RRIRGRPPRLPRPRPRPYPSPRP | -0.111 |
| RRIRPRPPRLPRPRPRPNWRPRP | 0.392 |
| RRIRQRPPRLPRPRPRPNLVPRP | 0.0528 |
| RRIRCRPPRLPRPRPRPRHHPRP | -0.088 |
| RRIRPRPPRLPRPRPRPTSGPRP | 0.173 |
| RRIRKRPPRLPRPRPRPGLLPRP | 0.494 |
| RRIRCRPPRLPRPRPRPLSLPRP | -0.305 |
| RRIRHRPPRLPRPRPRPTDCPRP | 0.038 |
| RRIRCRPPRLPRPRPRPFGIPRP | -0.129 |
| RRIRFRPPRLPRPRPRPQVLPRP | -0.00198 |
| RRIRPRPPRLPRPRPRPNYHPRP | -0.607 |
| RRIRARPPRLPRPRPRPEGTPRP | 0.251 |
| RRIRLRPPRLPRPRPRPQASPRP | 0.0594 |
| RRIRNRPPRLPRPRPRPQSSPRP | -0.0447 |

| Sequence | shrunken log2 fold change |
| --- | --- |
| RRIRIRPPRLPRPRPRPPPWPRP | 0.508 |
| RRIRHRPPRLPRPRPRPLDIPRP | -0.105 |
| RRIRMRPPRLPRPRPRPEIPPRP | 0.497 |
| RRIRERPPRLPRPRPRPNMWPRP | -0.647 |
| RRIRDRPPRLPRPRPRPCCTPRP | 0.149 |
| RRIRGRPPRLPRPRPRPTFDPRP | 0.548 |
| RRIRTRPPRLPRPRPRPFNPPRP | -1.37 |
| RRIRGRPPRLPRPRPRPMTRPRP | 0.519 |
| RRIRARPPRLPRPRPRPLLEPRP | 0.834 |
| RRIRVRPPRLPRPRPRPRSCPRP | 0.0646 |
| RRIRIRPPRLPRPRPRPLHPPRP | -0.0764 |
| RRIRLRPPRLPRPRPRPHAAPRP | -0.343 |
| RRIRIRPPRLPRPRPRPSVKPRP | -0.037 |
| RRIRCRPPRLPRPRPRPKPCPRP | 0.084 |
| RRIRCRPPRLPRPRPRPAGSPRP | 0.432 |
| RRIRQRPPRLPRPRPRPGTAPRP | 0.206 |
| RRIRCRPPRLPRPRPRPRGSPRP | 0.511 |
| RRIRSRPPRLPRPRPRPQLSPRP | -0.106 |
| RRIRFRPPRLPRPRPRPWSEPRP | -0.173 |
| RRIRERPPRLPRPRPRPDINPRP | -0.239 |
| RRIRLRPPRLPRPRPRPCGNPRP | 0.0862 |
| RRIRQRPPRLPRPRPRPGHGPRP | -0.124 |
| RRIRMRPPRLPRPRPRPRAYPRP | 0.426 |
| RRIRPRPPRLPRPRPRPTQHPRP | 0.262 |
| RRIRTRPPRLPRPRPRPIFLPRP | -0.145 |
